Measured values taken from paper doi:10.1101/2023.04.27.535981, “Development of constrained peptide inhibitors targeting an oncogenic E3 ubiquitin ligase” (bioRxiv, 2023).
Square brackets hold non-standard residues; d marks the D form. Ends that are not written are not given here. pT = C[C@@H](OP(=O)(O)O)[C@H](N)C(=O)O; Ahx = NCCCCCC(=O)O

Biological target: T1, Cks1-Skp2-Skp1 complex (GST-Skp2-Skp1-His-Cks1) (human | , UniProt Q13309 1-424; P63208 1-163; P61024 1-79)
T1 construct: Skp2, human; GST-Skp2 fusion from a dicistronic pGEX 4T1 plasmid with Skp1; Skp1, human; second cistron of the pGEX 4T1 GST-Skp2/Skp1 plasmid; Cks1, full length (1-79); The design was based on PDB 2AST, whose constructs may differ; also called Skp1-Skp2-Cks1 complex; Skp2-Skp1-Cks1 complex; source: E. coli C41; GST-Skp2-Skp1 (glutathione Sepharose, SEC) and His-Cks1 (Ni-NTA, SEC) purified, mixed …
Assay: fluorescence polarisation; direct FP; protein serially diluted 1:2 (12 points, triplicate) and mixed with 20 nM TAMRA-labelled peptide; SEC buffer (20 mM Tris-HCl pH 7.5, 150 mM NaCl, 1 mM DTT) with 0.01 % Tween-20; 30 min at room temperature
Details: both partners purified

T1 sequence (Q13309 whole entry, chain 1 of 3, the tested form may be a part): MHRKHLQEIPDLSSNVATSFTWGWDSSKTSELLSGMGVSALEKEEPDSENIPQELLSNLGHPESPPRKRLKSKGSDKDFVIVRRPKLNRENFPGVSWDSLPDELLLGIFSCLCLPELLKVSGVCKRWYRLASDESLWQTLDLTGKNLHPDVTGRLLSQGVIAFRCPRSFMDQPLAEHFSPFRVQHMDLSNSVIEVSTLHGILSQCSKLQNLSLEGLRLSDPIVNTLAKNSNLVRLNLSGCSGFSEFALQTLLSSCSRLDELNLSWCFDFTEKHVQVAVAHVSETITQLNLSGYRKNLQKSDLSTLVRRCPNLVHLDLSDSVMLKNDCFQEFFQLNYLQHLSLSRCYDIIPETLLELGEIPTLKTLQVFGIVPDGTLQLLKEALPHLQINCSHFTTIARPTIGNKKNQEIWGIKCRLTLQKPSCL
T1 sequence (P63208 whole entry, chain 2 of 3, the tested form may be a part): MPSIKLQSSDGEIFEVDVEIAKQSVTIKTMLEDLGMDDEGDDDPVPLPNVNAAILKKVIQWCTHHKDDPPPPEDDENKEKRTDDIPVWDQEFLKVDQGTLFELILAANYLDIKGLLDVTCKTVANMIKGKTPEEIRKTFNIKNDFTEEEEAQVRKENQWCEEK
T1 sequence (P61024 whole entry, chain 3 of 3, the tested form may be a part): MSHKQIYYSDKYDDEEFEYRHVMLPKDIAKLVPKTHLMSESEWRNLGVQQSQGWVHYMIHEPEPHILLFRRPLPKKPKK

B1: TAMRA-labelled 10-residue phosphorylated p27 peptide (TAMRA-Ahx-AGSVEQT(phos)PKK) (peptide)
peptide: {TAMRA-Ahx}-AGSVEQ[pT]PKK
notes: p27, amino acids 181-190; also called TAMRA-labelled p27 peptide; TAMRA-labelled unconstrained p27 peptide; source: synthetic peptide
Q: For B1, which Kd is on record?
A: 2780 ± 190 nM
